Numbering of substitutions follows the chain as printed.

The target in assay [1] is cynomolgus CD38 on cells expressing recombinant cynomolgus CD38 (cynomolgus, UniProt Q5VAN0 1-301).
Assay [2] addresses T1, human CD38 on human multiple myeloma MOLP-8 cells (human, UniProt P28907 1-300). As to the kind of experiment: flow cytometry, IgG1 at 100 nM on MOLP-8 cells, MFI over secondary-only control. A general note: Flow cytometry measures light scatter and fluorescence of single cells or particles in a stream.
In assay [3] the target is T1, human CD38 on human multiple myeloma …. As to the kind of experiment: cell-based or functional assay.
The target is the same in assay [4]. As to the kind of experiment: flow cytometry titration of IgG1 on MOLP-8 cells, nonlinear fit.
Assay [5] addresses recombinant cynomolgus monkey CD38 (purified, plate-coated) (cynomolgus, UniProt Q5VAN0 44-301). As to the kind of experiment: ELISA, plate-coated recombinant cynomolgus CD38, scFv-SLTA fusion titrated. On the technique in general: An ELISA detects its analyte on a solid surface through an enzyme-linked reagent.
Assay [6] has as its target recombinant human CD38 (purified, plate-coated) (human, UniProt P28907 43-300). The assay is described as follows: ELISA, plate-coated recombinant CD38, scFv-SLTA fusion titrated.

B1: CD38TM5 formatted into human IgG1 (antibody, V domains shown)
VH: EVQLLESGGGLVQPGGSLRLSCAASGFTFSDYYMNWIRQAPGKGLEWVSSISSSSSYIYYADSVKGRFTISRDNSKNTLYLQMNSLRAEDTAVYYCATEGPYYLYGFDIWGQGTLVTVSS
VL: QSVLTQPPSASGTPGQRVTISCSGSSSNIGSNYVYWYQQLPGTAPKLLIYGNSNRPSGVPDRFSGSKSGTSASLAISGLRSEDEADYYCQSYDNTLSGVIFGGGTKLTVLG
A word on the Kd: it is a measure of binding affinity in units of concentration. In the case of B1, the “FOB (fold-over-background of MFI)” value in assay [1] stood at 104 fold over background; in assay [2], 550 fold over background. The “% ADCC (mean)” value in assay [3] worked out at 35.2%. Further, in assay [3], the “% CDC (mean)” value turned out to be 4.7%. In assay [4], this molecule returned a dissociation constant (Kd) of 34 nM.

B2: CD38TM2 formatted into human IgG1 (antibody, V domains shown)
VH: EVQLLESGGGLVQPGGSLRLSCAASGFTFSSYWMHWVRQAPGKGLEWVSAISGSGGGTFYADSVKGRFTISRDNSKNTLYLQMNSLRAEDTAVYYCAREGETSFGLDVWGQGTLVTVSS
VL: B1 VL with S31G, G51R, S53N, N54Q, N94S, T95S, G98V, V99S, I100V
With B2, the “FOB (fold-over-background of MFI)” value in assay [1] turned out to be 272 fold over background.

B3: CD38TM1 formatted into human IgG1 (antibody, V domains shown)
VH: EVQLLESGGGLVQPGGSLRLSCAASGFTFSDYYMSWVRQAPGKGLEWVSAISGSGGSTYYADSVKGRFTISRDNSKNTLYLQMNSLRAEDTAVYYCAREHSNYFYGMDVWGQGTLVTVSS
VL: QSVLTQPPSASGTPGQRVTISCSGSSSNIGSNYVYWYQQLPGTAPKLLIYGNSNRPSGVPDRFSGSKSGTSASLAISGLRSEDEADYYCQSYDSSLSGSGVFGGGTKLTVLG
For B3, in assay [3], the “% ADCC (mean)” value was 29% and the “% CDC (mean)” value turned out to be 15%. This molecule returned an equilibrium dissociation constant (Kd) in assay [4] of 32 nM.

B4: CD38 targeting reference molecule #1 (CD38TR1) scFv fused to Shiga toxin A subunit (CD38TR1-SLTA) (scFv)
chain: MKEFTLDFSTAKTYVDSLNVIRSAIGTPLQTISSGGTSLLMIDSGSGDNLFAVDVRGIDPEEGRFNNLRLIVERNNLYVTGFVNRTNNVFYRFADFSHVTFPGTTAVTLSGDSSYTTLQRVAGISRTGMQINRHSLTTSYLDLMSHSGTSLTQSVARAMLRFVTVTAEALRFRQIQRGFRTTLDDLSGRSYVMTAEDVDLTLNWGRLSSVLPDYHGQDSVRVGRISFGSINAILGSVALILNCHHHASAVAAEFPKPSTPPGSSGGAPDIQMTQSPSSLSASVGDRVTITCKASEDIYNRLTWYQQKPGKAPKLLISGATSLETGVPSRFSGSGSGTDFTFTISSLQPEDIATYYCQQYWSNPYTFGQGTKVEIKGGGGSQVQLQESGPGLVRPSQTLSLTCTVSGFSLTSYGVHWVRQPPGRGLEWIGVMWRGGSTDYNAAFMSRLNITKDNSKNQVSLRLSSVTAADTAVYYCAKSMITTGFVMDSWGQGSLVTVSS
In the case of B4, the binding result in assay [5] is “no binding”. Also, in assay [6], the dissociation constant Kd was 7.7 ng/mL.

B5: CD38TM3 formatted into human IgG1 (antibody, V domains shown)
VH: QVQLVQSGAEVKKPGESLKISCKGSGYSFTSYWIGWVRQMPGKGLEWMGIIYPGDSDTRYSPSFQGQVTISADKSISTAYLQWSSLKASDTAMYYCARGPSTGFWSGNYFDYWGQGTLVTVSS
VL: QTVVTQEPSLTVSPGETVTLTCASSTGAVTSGFYPNWFQQKPGQAPRALIYATNNKYSWTPARFSGSLLGDKAALTLSRVQPEDEADYYCLVYYDGAWVFGGGTKLTVLG
Regarding B5, in assay [1], the “FOB (fold-over-background of MFI)” value turned out to be 528 fold over background.

B6: CD38TM6 formatted into human IgG1 (antibody, V domains shown)
VH: EVQLLESGGGLVQPGGSLRLSCAASGFTFDDYGMTWVRQAPGKGLEWVSGINWNGGSTGYADSVKGRFTISRDNSKNTLYLQMNSLRAEDTAVYYCARGGLFHDSSGYYFGHWGQGTLVTVSS
VL: QSVLTQPPSASGTPGQRVTISCSGSSSNIGNSYVSWYQQLPGTAPKLLIYRNNQRPSGVPDRFSGSKSGTSASLAISGLRSEDEADYYCSAWDDNLSVLFGGGTKLTVL
B6: in assay [1], the “FOB (fold-over-background of MFI)” value amounted to 176 fold over background. Besides, the “FOB (fold-over-background of MFI)” value in assay [2] is 104 fold over background. Besides, in assay [3], the “% ADCC (mean)” value is 50.4% and the “% CDC (mean)” value was determined as 34.3%. The same molecule showed a dissociation constant Kd in assay [4] of 4.6 nM.

Values taken from patent US12312411 (Takeda / Millennium, dated 2025).
